The labels stand for the following.
B1: SEQ ID NO: 22010: two AABD attached in tandem to one of the two TCR constant chains (protein)
chain: MALPVTALLLPLALLLHAARPLEGKPIPNPLLGLDSTGSGEDLKNVFPPEVAVFEPSKAEIAHTQKATLVCLATGFYPDHVELSWWVNGKEVHSGVCTDPQPLKEQPALNDSRYCLSSRLRVSATFWQNPRNHFRCQVQFYGLSENDEWTQDRAKPVTQIVSAEAWGRADCGITSASYHQGVLSATILYEILLGKATLYAVLVSALVLMAMVKRKDSRGRAKRSGSGATNFSLLKQAGDVEENPGPTSTMALPVTALLLPLALLLHAARPQLQLQESGPGLVKPSETLALTCNVSGGSISSSSYYWGWIRQPPGKRLEWIGSIYYSGSTYFNPSLKSRVTISVDTSKNQFSLKLSSVTAADTAVYYCAGGDYYGPVGQWPSDYRGQGTLVTVSSGSGGGGSGGGGSFEVQLLESGGGLVQPGGSLRLSCAASGFIFSSYAMSWVRQAPGKGQEWVSGVSGTGVNTYYADSVKGRFTISRDNSKNTLYLQMNSLRAEDTAVYYCASGKGWDSGSWYEDYRGQGTLVTVSSTREQKLISEEDGSGIQNPDPAVYQLRDSKSSDKSVCLFTDFDSQTNVSQSKDSDVYITDKCVLDMRSMDFKSNSAVAWSNKSDFACANAFNNSIIPEDTFFPSSDVPCDVKLVEKSFETDTNLNFQNLSVIGFRILLLKVAGFNLLMTLRLWSSRAKRSGSGVKQTLNFDLLKLAGDVESNPGPSRGHMTEYKPTVRLATRDDVPRAVRTLAAAFADYPATRHTVDPDRHIERVTELQELFLTRVGLDIGKVWVADDGAAVAVWTTPESVEAGAVFAEIGPRMAELSGSRLAAQQQMEGLLAPHRPKEPAWFLATVGVSPDHQGKGLGSAVVLPGVEAAERAGVPAFLETSAPRNLPFYERLGFTVTADVEVPEGPRTWCMTRKPGA
B2: SEQ ID NO: 22096: FHVH attached to TCRg-6MD via IgCL linker and second FHVH attached to TCRd-6MD via IgG1-CH1 linker (protein)
chain: MALPVTALLLPLALLLHAARPQLQLQESGPGLVKPSETLSLTCTVSGDSISSGDYYWGWIRQPPGKGLEWIGHIYYSGVTYYNPSLKSRVTISVDTSRNQFSLKLSSVTAADTAVYYCTREDSSNWRSRGQGTLVTVSSLEGQPKANPTVTLFPPSSEELQANKATLVCLISDFYPGAVTVAWKADGSPVKAGVETTKPSKQSNNKYAASSYLSLTPEQWKSHRSYSCQVTHEGSTVEKTVAPTECSPIKTDVITMDPKDNCSKDANDTLLLQLTNTSAYYMYLLLLLKSVVYFAIITCCLLRRTAFCCNGEKSRAKRSGSGATNFSLLKQAGDVEENPGPTSMDWIWRILFLVGAATGAHSFEVQLLESGGGLIQPGGSLRLSCAASGFTFSSHAMTWVRQAPGKGLEWVSAISGSGDYTHYADSVKGRFTISRDNSKNTVYLQMNSLRAEDSAVYYCAKDEDGGSLLGHRGQGTLVTVSSTRASTKGPSVFPLAPSSKSTSGGTAALGCLVKDYFPEPVTVSWNSGALTSGVHTFPAVLQSSGLYSLSSVVTVPSSSLGTQTYICNVNHKPSNTKVDKRVEPKSCEVKTDSTDHVKPKETENTKQPSKSCHKPKAIVHTEKVNMMSLTVLGLRMLFAKTVAVNFLLTAKLFFLRAKRSGSGVKQTLNFDLLKLAGDVESNPGPSRGHMTEYKPTVRLATRDDVPRAVRTLAAAFADYPATRHTVDPDRHIERVTELQELFLTRVGLDIGKVWVADDGAAVAVWTTPESVEAGAVFAEIGPRMAELSGSRLAAQQQMEGLLAPHRPKEPAWFLATVGVSPDHQGKGLGSAVVLPGVEAAERAGVPAFLETSAPRNLPFYERLGFTVTADVEVPEGPRTWCMTRKPGA
B3: SEQ ID NO: 22099: FHVH attached to TCRa-wt2-opt-6MD via IgCL linker and second FHVH attached to TCRb-wt2-opt-6MD via IgG1-CH1 linker (protein)
chain: MALPVTALLLPLALLLHAARPQVQLVESGGGLVQPGGSLRLSCAASGFTFTNHAMSWVRQAPGKGLELVSSISGNGRTTYYADSVKGRFTISRDISKNTLDLQMNSLRAEDTAVYYCAKDGGETLVDSRGQGTLVTVSSLEGQPKANPTVTLFPPSSEELQANKATLVCLISDFYPGAVTVAWKADGSPVKAGVETTKPSKQSNNKYAASSYLSLTPEQWKSHRSYSCQVTHEGSTVEKTVAPTECSGRADCGFTSESYQQGVLSATILYEILLGKATLYAVLVSALVLMAMVKRKDSRGRAKRSGSGATNFSLLKQAGDVEENPGPTSMDWIWRILFLVGAATGAHSFEEVQLLESGGGLVQPGGSLRLSCAASGFTFSSYAMSWVRQAPGKGLEWVSSISGSGDYIYYADSVKGRFTISRDISKNTLYLQMNSLRAEDTAVYYCAKEGTGANSSLADYRGQGTLVTVSSTRASTKGPSVFPLAPSSKSTSGGTAALGCLVKDYFPEPVTVSWNSGALTSGVHTFPAVLQSSGLYSLSSVVTVPSSSLGTQTYICNVNHKPSNTKVDKRVEPKSCIPEDTFFPSPESSCDVKLVEKSFETDTNLNFQNLSVIGFRILLLKVAGFNLLMTLRLWSSRAKRSGSGVKQTLNFDLLKLAGDVESNPGPSRGHMTEYKPTVRLATRDDVPRAVRTLAAAFADYPATRHTVDPDRHIERVTELQELFLTRVGLDIGKVWVADDGAAVAVWTTPESVEAGAVFAEIGPRMAELSGSRLAAQQQMEGLLAPHRPKEPAWFLATVGVSPDHQGKGLGSAVVLPGVEAAERAGVPAFLETSAPRNLPFYERLGFTVTADVEVPEGPRTWCMTRKPGA
B4: SEQ ID NO: 22098: FHVH attached to TCRg-6MD via IgCL linker and second FHVH attached to TCRd-6MD via IgG1-CH1 linker (protein)
chain: MALPVTALLLPLALLLHAARPQVQLVESGGGLVQPGGSLRLSCAASGFTFTNHAMSWVRQAPGKGLELVSSISGNGRTTYYADSVKGRFTISRDISKNTLDLQMNSLRAEDTAVYYCAKDGGETLVDSRGQGTLVTVSSLEGQPKANPTVTLFPPSSEELQANKATLVCLISDFYPGAVTVAWKADGSPVKAGVETTKPSKQSNNKYAASSYLSLTPEQWKSHRSYSCQVTHEGSTVEKTVAPTECSPIKTDVITMDPKDNCSKDANDTLLLQLTNTSAYYMYLLLLLKSVVYFAIITCCLLRRTAFCCNGEKSRAKRSGSGATNFSLLKQAGDVEENPGPTSMDWIWRILFLVGAATGAHSFEEVQLLESGGGLVQPGGSLRLSCAASGFTFSSYAMSWVRQAPGKGLEWVSSISGSGDYIYYADSVKGRFTISRDISKNTLYLQMNSLRAEDTAVYYCAKEGTGANSSLADYRGQGTLVTVSSTRASTKGPSVFPLAPSSKSTSGGTAALGCLVKDYFPEPVTVSWNSGALTSGVHTFPAVLQSSGLYSLSSVVTVPSSSLGTQTYICNVNHKPSNTKVDKRVEPKSCEVKTDSTDHVKPKETENTKQPSKSCHKPKAIVHTEKVNMMSLTVLGLRMLFAKTVAVNFLLTAKLFFLRAKRSGSGVKQTLNFDLLKLAGDVESNPGPSRGHMTEYKPTVRLATRDDVPRAVRTLAAAFADYPATRHTVDPDRHIERVTELQELFLTRVGLDIGKVWVADDGAAVAVWTTPESVEAGAVFAEIGPRMAELSGSRLAAQQQMEGLLAPHRPKEPAWFLATVGVSPDHQGKGLGSAVVLPGVEAAERAGVPAFLETSAPRNLPFYERLGFTVTADVEVPEGPRTWCMTRKPGA

This note sets out measurements from patent publication US20230212319A1, “NOVEL ANTIGEN BINDING DOMAINS AND SYNTHETIC ANTIGEN RECEPTORS INCORPORATING THE SAME” (University of Southern California, priority 2020, published 2023).

This experiment relates to target antigen-expressing cell line. Description: Jurkat NFAT-GFP (JNG) assay: induction of NFAT promoter driven GFP expression. The experiment is classed as cell-based. The settings on record: SAR-expressing JNG cells co-cultured with cell lines expressing their target antigen(s). On the procedure: Induction ofNFAT promoter driven GFP expression. […] Cellular supernatant is collected and assayed for the induction of cytokines (e.g., IL2).
Cellular supernatant is collected and assayed for the induction of cytokines (e.g., IL2).
JNG (Jurkat cells expressing EGFP under an NFAT promoter) were infected with lentiviral vectors encoding different single chain and multi-chain SARs by spinfection in the presence of 8 µg/ml of Polybrene® (Sigma, Catalog no. H9268). The Jurkat-NFAT-GFP cells are engineered in such a way that the IL-2 promoter, which carries NFAT binding sites, is cloned upstream of the GFP gene. These cells have been used to study signaling via TCR and CAR. The different SARs were stably expressed in Jurkat NFAT-GFP cells by lentiviral mediated gene transfer, followed by selection with puromycin or blasticidin. No drug selection was used in case the construct lacked an antibiotic resistance gene. The SAR-expressing Jurkat-NFAT-GFP cells were cocultured with the target cells at E:T ratio of approximately 1:2 for approximately 4 hours to 18 hours. When the interaction between SIRs and their target antigen results in activation of the NFAT pathway, GFP expression is induced. […] GFP expression was monitored by FACS analysis. The Jurkat-NFAT-GFP (parental) cells were used as control. The structure of different constructs can be determined based on their names. […] The sequence of the other constructs in the table can be similarly determined from their names and by referring to the different Tables of this disclosure that provide the names and SEQ ID NO of the different modules. Alternatively, the composition and modular architecture of the different SAR constructs can be determined from their sequences by bioinformatics tools, including using nucleic acid and amino acids homology searches. A SAR is considered positive in the assay in case the SAR expressing Jurkat-NFAT-GFP cells show greater % GFP positive cells when cultured with the target cell line as compared to parental Jurkat-NFAT-GFP cells. […] In general, the number +/-, +, 2+, 3+, 4+, 5+ refer to approximately 5%, 10%, 20%, 30%, 40% and 50% GFP positive cells. The % of GFP induction in the above assay is dependent not only the relative strength of the SAR but also, among other factors, on the relative level of expression of the SAR in the JNG cells and the relative level of expression of the target antigen in the target cell line. To control for the difference in gene transduction efficiency of the different SAR constructs, the experiment was conducted with JNG cells transduced with SAR constructs co-expressing a drug resistance gene (e.g., puromycin or PAC) followed by drug selection to generate a stable population of SAR-expressing cells. It is to be noted that the drug resistance gene (e.g., PAC) in the SAR constructs is optional and in vivo studies were conducted with SAR constructs lacking the PAC gene.
Consider B1, for which the “GFP induction / activity in JNG assay” value was “only weak and inconsistent activity”.
In the case of B2 it was “best activity”.
To B3 belongs “good activity”; to B4, “best activity”.
